In PMC9340783:

Legend:
hGITR ECD hFc (human) [1] = target: hGITR ECD hFc (human) (UniProt Q9Y5U5); experiment: SPR; Biacore T200; hGITR ECD hFc immobilised on a Series S CM5 chip; antibody 0, 3.125, 6.25, 12.5, 25 and 50 nM; association 180 s, dissociation 600 s
[2] = target: human GITR on 293F‐hGITR cells (human) (UniProt Q9Y5U5)
[3] = target: cynoGITR ECD hFc (cynomolgus); experiment: ELISA; indirect ELISA; antigen hFc fusion protein coated on 96-well plates (1 μg·mL^−1 overnight at 4 °C in Fig. 3B), antibody added, detected with anti-rat IgG/hIgG-peroxidase antibody
hGITR ECD hFc (human) [4] = target: hGITR ECD hFc (human) (UniProt Q9Y5U5); experiment: as above
[5] = target: cynoGITR on 293F‐cynoGITR cells (cynomolgus); experiment: flow cytometry on cells; 293F‐hGITR or 293F‐cynoGITR cells incubated with antibodies at 4 °C for 1 h, fluorescent anti-rat/human secondary antibody; EC50 of MFI curve
[6] = target: human GITR on 293F‐hGITR cells (human) (UniProt Q9Y5U5); experiment: as above
hGITR ECD hFc (human) [7] = target: hGITR ECD hFc (human) (UniProt Q9Y5U5); experiment: SPR

Sequence of hGITR ECD hFc (human) (Q9Y5U5 other isoform, or with tags, fused parts or gaps): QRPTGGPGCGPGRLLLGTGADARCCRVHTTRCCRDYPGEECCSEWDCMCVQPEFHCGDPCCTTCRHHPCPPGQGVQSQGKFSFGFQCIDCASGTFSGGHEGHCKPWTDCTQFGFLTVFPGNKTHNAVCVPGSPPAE
Sequence of human GITR on 293F‐hGITR cells (human) (Q9Y5U5 26-241): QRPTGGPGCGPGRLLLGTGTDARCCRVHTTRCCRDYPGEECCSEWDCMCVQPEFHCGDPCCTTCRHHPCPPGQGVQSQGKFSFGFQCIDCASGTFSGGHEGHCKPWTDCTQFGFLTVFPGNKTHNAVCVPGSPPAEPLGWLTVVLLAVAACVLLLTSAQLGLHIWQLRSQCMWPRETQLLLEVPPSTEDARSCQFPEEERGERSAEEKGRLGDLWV

Tab6C8 (antibody)
Kd (hGITR ECD hFc (human) [1]): 3820 pM
NF‐ĸB luciferase reporter assay, Crosslinking, EC50 [2]: 336 pM
NF‐ĸB luciferase reporter assay, Crosslinking, Top ratio [2]: 32 fold
NF‐ĸB luciferase reporter assay, No crosslinking, EC50 [2]: 829 pM
NF‐ĸB luciferase reporter assay, No crosslinking, Top ratio [2]: 14 fold
T‐cell activation (IFN‐γ secretion), Donor#1, EC50 [2]: 10.6 pM
T‐cell activation (IFN‐γ secretion), Donor#2, EC50 [2]: 5.59 pM
T‐cell activation (IFN‐γ secretion), Donor#3, EC50 [2]: 6.81 pM
EC50 [3]: 1120 pM
EC50 (hGITR ECD hFc (human) [4]): 954 pM
EC50 [5]: 7 pM
EC50 [6]: 27 pM

Tab6C8
koff (hGITR ECD hFc (human) [7]): 0.0044 s⁻¹
